B1: Rep15, full length (natural N101D variant) [human] / Rab3A, purified, nucleotide-loaded [human] (parent complex)
chain 1: MGQKASQQLALKDSKEVPVVCEVVSEAIVHAAQKLKEYLGFEYPPSKLCPAANTLNEIFLIHFITFCQEKGVDEWLTTTKMTKHQAFLFGADWIWTFWGSDKQIKLQLAVQTLQMSSPPPVESKPCDLSNPESRVEESSWKKSRFDKLEEFCNLIGEDCLGLFIIFGMPGKPKDIRGVVLDSVKSQMVRSHLPGGKAVAQFVLETEDCVFIKELLRNCLSKKDGLREVGKVYISIL
chain 2: MASATDSRYGQKESSDQNFDYMFKILIIGNSSVGKTSFLFRYADDSFTPAFVSTVGIDFKVKTIYRNDKRIKLQIWDTAGQERYRTITTAYYRGAMGFILMYDITNEESFNAVQDWSTQIKTYSWDNAQVLLVGNKCDMEDERVVSSERGRQLADHLGFEFFEASAKDNINVKQTFERLVDVICEKMSESLDTADPAVTGAKQGPQLSDQQVPPHQDCAC

The variants in the first assay derive from B1. Put plainly: ITC.
Consider chain 1 H84A, for which the Kd amounted to 450 nM.

In the next assay the parent is B1. Put plainly: ITC. The source holds these as a separate data set.
For chain 1 V135A, the Kd was found to be 510 nM.

What is called Kd is a measure of binding affinity in units of concentration.

Source of the values: article PMC9308819 (Nature Communications, 2022).
